Reference: patent US20260130970A1, “PRESERVED GIP/GLP AGONIST COMPOSITIONS” (ELI LILLY AND COMPANY, priority 2022, published 2026)

Assay: Light scattering of tirzepatide samples (apparent weight-average molecular weight, self-association)
Assay type: physicochemical
Conditions: Mounjaro™ matrix (5 mM phosphate buffer, 140 mM NaCl, pH=7.0), 5 mg/mL to 30 mg/mL
Description: Tirzepatide formulations were prepared for light scattering measurements, with compositions detailed in Tables 1.a and 1.b. Light scattering data were collected using an ALV-CGS3 goniometer-based light scattering instrument (ALV-GmbH, Langen, Germany), which is a self-contained system with 22 mW 633 nm HeNe laser. Samples were filtered into disposable glass tubes using appropriate filters. Corresponding drug product placebos were used as scattering blanks. A single 15- or 30-second-long acquisition at 90-degree scattering angle was collected per sample, using the dynamic light scattering (DLS) mode. The resulting DLS auto-correlation functions were analyzed using intensity-weighted regularized size distributions, and shown to be monomodal before proceeding. The time-averaged scattering intensity values of the samples, placebos and toluene were used to calculate the excess Rayleigh ratios.
Apparent weight-average molecular weight (WAMW) values were calculated using formula (1):
[formula] • where K is an optical constant, c is the peptide mass concentration, and R is the excess Rayleigh ratio. A refractive index increment (dn/dc) of 0.185 mL/g was assumed.
To study the effect of preservatives, m-cresol, phenol or benzyl alcohol at selected concentrations were added to a standard Mounjaro™ composition. […]

Q: With tirzepatide as the substance, how does the self-association of tirzepatide read?
A: The self-association of tirzepatide was “monomer-trimer-hexamer equilibrium”.
